# T1: GST-tagged Tea1p (pESP-GSTtea1+) (Schizosaccharomyces pombe, UniProt P87061 1-1147)
# T1 construct: also called GST-Tea1p
# T1 sequence (looked up): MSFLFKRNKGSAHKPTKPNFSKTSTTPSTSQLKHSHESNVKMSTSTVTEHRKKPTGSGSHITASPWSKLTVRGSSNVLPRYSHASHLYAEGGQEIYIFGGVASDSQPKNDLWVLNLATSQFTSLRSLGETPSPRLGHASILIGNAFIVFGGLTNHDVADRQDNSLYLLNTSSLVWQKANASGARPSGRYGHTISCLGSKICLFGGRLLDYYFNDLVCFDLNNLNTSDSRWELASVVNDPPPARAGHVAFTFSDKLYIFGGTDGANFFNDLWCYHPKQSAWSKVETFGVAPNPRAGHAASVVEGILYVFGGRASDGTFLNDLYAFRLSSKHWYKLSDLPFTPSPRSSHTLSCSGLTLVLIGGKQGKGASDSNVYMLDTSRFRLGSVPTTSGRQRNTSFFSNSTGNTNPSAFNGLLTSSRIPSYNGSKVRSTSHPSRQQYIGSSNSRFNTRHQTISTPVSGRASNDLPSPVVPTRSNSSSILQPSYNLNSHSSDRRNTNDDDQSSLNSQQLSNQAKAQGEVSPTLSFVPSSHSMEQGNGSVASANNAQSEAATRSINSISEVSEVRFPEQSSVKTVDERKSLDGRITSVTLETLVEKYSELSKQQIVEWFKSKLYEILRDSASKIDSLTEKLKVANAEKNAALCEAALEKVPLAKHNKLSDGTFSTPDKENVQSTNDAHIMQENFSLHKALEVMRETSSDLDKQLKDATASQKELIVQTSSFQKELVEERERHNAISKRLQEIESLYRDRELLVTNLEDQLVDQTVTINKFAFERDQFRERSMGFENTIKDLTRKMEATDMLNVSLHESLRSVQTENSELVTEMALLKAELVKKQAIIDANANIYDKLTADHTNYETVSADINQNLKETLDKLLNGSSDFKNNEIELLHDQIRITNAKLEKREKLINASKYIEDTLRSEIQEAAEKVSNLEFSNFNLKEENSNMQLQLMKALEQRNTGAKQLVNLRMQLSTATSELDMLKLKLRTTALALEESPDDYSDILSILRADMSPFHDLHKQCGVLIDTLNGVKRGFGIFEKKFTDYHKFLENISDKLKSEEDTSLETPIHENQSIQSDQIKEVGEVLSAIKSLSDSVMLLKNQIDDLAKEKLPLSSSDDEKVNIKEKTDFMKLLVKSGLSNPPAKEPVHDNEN
# B1: Bot1p fused to the GAL4 activation domain (pACT-bot1) (other, not shown: large carriers)
# chain: MRNSVEFSQLGLKTAFNLSQNKTYTSAVKKQFFSTGAFLSNGGNIDLNKHTQKNIDSKYVACNSRSVTPPNDVASSVSKNTLRHKQRLMMAQWLMSPEVQKAKSSSSGNVGLGPNTNQPFPLNPFFKPPRPISHSLRMKITDEYLQGASIEVLARKFNTSPQRIEALIKLRRINDEFEEKKKPILHSYNEVMEKMLNACTKPEMMQFNDGNDIPLRSNPVSLWKSLPEGETFTPQEAAKILKWPSIEELNMRQNATHFHKTSDEHKDLNEDEELISSSPSEVGKRVFRLIDLSTGNVYRRDTGGDIYVKRKKSTT
# notes: also called bot1+ clones
# B2: HA-tagged Cdc23p (pRep41-HA3cdc23) (other, fission yeast, UniProt O42709 1-593, looked up, not shown: small tags and cut ends)
# chain: MHDPFIAEENDLDLEEKRLQRQLNEIQEKKRLRSAQKEASSENAEVIQVPRSPPQQVRVLTVSSPSKLKSPKRLILGIDKGKTGKDVSLGKGPRGPLPKPFHERLAEARNQERKRSDKLKTMKKNRKQSFQRKRNILEDGKSEEEKFPMKCDEIDPYSRQAIVIRYISDEVAKENIGGNQVYLIHQLLKLVRAPKFEAPEVDNYVVMGIVASNSGTRETVNGNKYCMLTLTDLKWQLECFLFGKAFERYWKIQSGTVIALLNPEVLKPKNPDIGRFSLKLDSEYDVLLEIGRSKHLGYCSSRRKSGELCKHWLDKRAGDVCEYHVDLAVQRSMSTRTEFASSMATMHEPRARREKRFRGQGFQGYFAGEKYSAIPNAVAGLYDAEDAVQTERERKERYKKQRAQAEREREILVRLSKRCCASSSSSSNSNNLSTGMSMRTLGHQYLNLQGSGVKNLHDKGNPTALSKDSEIDSSTKKPSVLASFNASIMNPKSSLPSFSNSAILGTNDAASGTPVPQDTTSTKVSPAVVFTSSPRIFSPQSLRKIGFDPTHSADASTTHSTATGLSRSGSLKNIKFRYEFTESDDEDDLEIVP
# notes: also called HA-Cdc23p; HA-Cdc23
# Legend:
# [1] = test system: microtubule cytoskeleton of fission yeast cells expressing Myc-Bot1; assay: Microtubule depolymerization and Bot1p localization by immunofluorescence in cells expressing Myc-Bot1; assay type: cell-based, Schizosaccharomyces pombe; conditions: cells expressing Myc-Bot1 exposed for 45 min
# Procedure: Cells in liquid cultures were grown exponentially for at least eight generations, at densities below 10^7 cells/ml, before the start of the experiment. Immunofluorescent staining was performed as described (46). Cells were fixed in methanol and stained with the following primary antibodies: a rabbit polyclonal antibody anti-Tea1p (40, a kind gift of Dr. P. Nurse, ICRF London), a rabbit polyclonal antibody anti-Orb6p, a monoclonal anti-hemagglutinin (HA) antibody (Covance), and a chicken polyclonal anti-Myc antibody (Molecular Probes). For actin and microtubule staining, a monoclonal anti-actin antibody (Amersham Pharmacia Biotech) and a monoclonal anti-tubulin antibody (TAT1; a kind gift of Dr. K. Gull), respectively, were used A CY3-conjugated anti-mouse, a CY3-conjugated anti-rabbit, or an FITC-conjugated anti-mouse were used as secondary antibodies (Sigma). Cells were immobilized on coverslips using PBS-containing antifade (Molecular Probes) as mounting medium and photographed using a Zeiss Axiophot microscope or a Leica DMRA microscope, equipped with Metamorph 1.7.4 software (Universal Images).
# Because our previous results indicated a role for Tea1p in the control of Bot1p function, the effect of microtubule depolymerization on Bot1p localization was assessed. […]
# [2] = target: T2, GAL4 binding domain fused to Cdc23p (pAS1-cdc23) (fission yeast, UniProt P04386 1-147; O42709 1-593); assay: yeast two-hybrid (HIS3 and LACZ reporters)
# T2 construct: Two-hybrid control bait
# Excerpt: (§1) The tea1 gene was fused to the DNA binding domain of GAL4 in a plasmid (pAS1) carrying the trp1 marker. The orb6 gene was fused to the DNA binding domain of GAL4 (pAS1-orb6) and to the GAL4 activator domain (pACT2-orb6). The cDNA library was cloned to the transcription activator domain of GAL4 in a plasmid (pACT) carrying the leu2 marker. Plasmids pAS1, pACT2, pSE1111 (pACT-SNF4), pSE1112 (pAS1-SNF1), pAS1-p53, pAS1-lamin and the S. pombe library prepared in phage λ vectors and plasmids pAS1-SNF1 and pAS1-lamin, both harbored in Y187 strain, were kindly provided by Dr. S. Elledge. The test for cell growth on medium lacking histidine, the beta-galactosidase activation assay and the mating test to detect interaction specificity were performed as described (14). After screening 2×10⁶ transformants, we found five proteins that interact with Orb6p and four that interact with Tea1p in this system, and that were identified multiple times in the screen. Clones containing bot1+ were isolated 22 times in the Orb6p screen and eight times in the Tea1p screen. All clones contained the full-length bot1 sequence, although they usually lacked the initial ATG codon. For beta-galactosidase activation, three independent transformants were assayed for each condition.
# (§2) To identify novel components of the Orb6p pathway, a two-hybrid screen was performed to identify cDNAs encoding proteins that interact with Orb6p. One of these, isolated 22 times in this screen, was a novel protein that we named Bot1p. […] The specificity of the positive interaction between Orb6p and Bot1p in the two-hybrid system was controlled by cotransformation of pAS1-orb6 and pACT-bot1 independently with a number of control plasmids. Co-expression of SNF1p or SNF4p was used as positive controls. Orb6p was unable to support the activation of the LACZ-GAL4 and HIS3-GAL4 promoters when co-expressed with GAL4 activation domain fused to SNF4p, or with the GAL4 activation domain (GAD) alone. Bot1p was unable to support the activation of the LACZ-GAL4 and HIS3-GAL4 promoters when co-expressed with the GAL4 binding domain fused to p53, Cdc23p, GAL4 DNA binding domain (GBD) alone, or fused to SNF1p or Cdt1p.
# [3] = target: GAL4 binding domain fused to SNF1p (pSE1112, pAS1-SNF1) (UniProt P04386 1-147; P06782 1-633); assay: yeast two-hybrid (HIS3 and LACZ reporters)
# Excerpt: as §1, §2
# [4] = target: T3, GAL4 binding domain fused to Cdt1p (pAS1-cdt1) (fission yeast, UniProt P04386 1-147; P40382 1-422, limits assumed); assay: two-hybrid library screens with other baits; dot blotting of the isolated pACT plasmids
# T3 construct: Two-hybrid control bait
# [5] = target: T1, GST-tagged Tea1p (pESP-GSTtea1+); assay: glutathione beads carrying GST-Tea1p incubated with a fission yeast extract containing HA-Cdc23p
# Procedure: Cell extracts were prepared as described. GST-Tea1p and GST were purified using glutathione beads (Molecular Probes). Beads were spun, and further incubated for 4 hr with an extract containing HA-Bot1p or a control extract containing HA-Cdc23p.
# Glutathione beads were washed three times in HB buffer and then eluted. The eluate was run on a 10% polyacrylamide gel, blotted on nitrocellulose, and probed with a primary anti-HA antibody (Covance) or, separately, with a primary anti-GST antibody (Molecular Probes) and with a horseradish peroxidase-conjugated secondary antibody (ECL, Amersham).
# To confirm this interaction between Tea1p and Bot1p in fission yeast extracts, GST-Tea1p and HA-Bot1p were co-expressed in fission yeast cells, and GST-Tea1p was purified using glutathione-coupled resin. The beads were further incubated with an extract containing HA-Bot1p or HA-Cdc23p as a control.
molecule,measurement,setting,value
"COC(=O)Nc1nc2ccccc2[nH]1 [MBC, methyl-benzidazole-carbamate]",effect on microtubule cytoskeleton,[1]; DMSO control,virtually complete microtubule depolymerization
same,Bot1p localization,[1]; DMSO control showed normal Bot1p localization at the cell tips,more spread out and less restricted to the cell tips
B1,binding result,[2],no binding
same,binding result,[3],no binding
same,binding result,[4],no binding
B2,binding result,[5],no binding

# Reference: US20040106173A1, “Bot1: target for antifungal agents” (The University of Miami, priority 2001, published 2004)
